Read-outs that look alike come from different tables or passages of the source.
Legend:
Test in all cases: SPR
[1] = target: 16E6L/V (C-terminal peptide of HPV16 early protein E6 with L158V) (human papilloma virus 16)
[2] = target: 16E6L/V (C-terminal peptide of HPV16 early protein E6 with L158V) (human papilloma virus 16); remark: listed apart in the source
[3] = target: 16E6L/V (C-terminal peptide of HPV16 early protein E6 with L158V) (human papilloma virus 16); remark: listed apart in the source
[4] = target: 16E6L/V (C-terminal peptide of HPV16 early protein E6 with L158V) (human papilloma virus 16); remark: listed apart in the source

Sequence of MAGI1-2/6 (MBP fusion of the second of the six PDZ domains of MAGI1) (Q6RHR9 448-572): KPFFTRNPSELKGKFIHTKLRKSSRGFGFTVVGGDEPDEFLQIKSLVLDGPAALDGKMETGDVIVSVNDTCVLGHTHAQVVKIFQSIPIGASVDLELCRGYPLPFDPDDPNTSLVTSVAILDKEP
Sequence of MAGI1-3/6 (MBP fusion of the third of the six PDZ domains of MAGI1) (Q6RHR9 613-752): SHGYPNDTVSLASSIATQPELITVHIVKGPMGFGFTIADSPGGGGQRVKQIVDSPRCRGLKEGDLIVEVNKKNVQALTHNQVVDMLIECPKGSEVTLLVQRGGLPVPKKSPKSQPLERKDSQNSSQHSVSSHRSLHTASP
Sequence of SCRIB-3/4 (MBP fusion of the third of the four PDZ domains of SCRIB) (Q14160 997-1093): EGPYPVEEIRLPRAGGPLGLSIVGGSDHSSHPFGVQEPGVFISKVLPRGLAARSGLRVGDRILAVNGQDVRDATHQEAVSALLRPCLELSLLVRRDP
Sequence of SCRIB-34/4 (MBP fusion of the tandem of the third and fourth PDZ domains of SCRIB) (Q14160 997-1193): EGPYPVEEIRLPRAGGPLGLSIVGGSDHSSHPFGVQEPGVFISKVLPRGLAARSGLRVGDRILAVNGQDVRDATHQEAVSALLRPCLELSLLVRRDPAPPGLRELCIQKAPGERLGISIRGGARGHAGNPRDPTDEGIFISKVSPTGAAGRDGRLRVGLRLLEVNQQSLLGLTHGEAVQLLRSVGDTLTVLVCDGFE

| Substance | Kd [1] [µM] | Kd [2] [µM] | Kd [3] [µM] | Kd [4] [µM] |
| --- | --- | --- | --- | --- |
| MAGI1-2/6 (MBP fusion of the second of the six PDZ domains of MAGI1) (from UniProt Q6RHR9-1 448-572) (domain or fragment) | 2 | 18 | 1 | – |
| SCRIB-3/4 (MBP fusion of the third of the four PDZ domains of SCRIB) (from UniProt Q14160-1 997-1093) (domain or fragment) | 18 | 41 | 32 | – |
| SCRIB-34/4 (MBP fusion of the tandem of the third and fourth PDZ domains of SCRIB) (from UniProt Q14160-1 997-1193) (domain or fragment) | 3 | – | – | 4 |
| MAGI1-3/6 (MBP fusion of the third of the six PDZ domains of MAGI1) (from UniProt Q6RHR9-1 613-752) (domain or fragment) | 69 | 76 | 202 | – |

From PMC3206016, “Putting into Practice Domain-Linear Motif Interaction Predictions for Exploration of Protein Networks” (PLoS ONE, 2011)
